B1: N-loop (designed binder)
chain: MSSQIRQNYHQDSEAAVNRQINLYLQASYTYLSLGFYFDRDDVALEGVSHFFRELAEEKREGYERLLKMQNQRGGRIFLQDIKKPDCDEWGKTPDAMKAAMALEKKLNQALLDLHKLATDKNDPHLCDFLETHFLDEEVKLIKKMGDHLTNLHRLGGPEAGLGEYLFERLTLKHD
notes: expressed in E. coli from PET22b; Purity of target protein 77.1%; also called N-loop modified protein
B2: N terminal (designed binder)
chain: B1 chain with D86A, C87E
B3: C-loop (designed binder)
chain: MSSQIRQNYSTDVEAAVNSLVNLYLQASYTYLSLGFYFDRDDVALEGVSHFFRELAEEKREGYERLLKMQNQRGGRALFQDIKKPDCDEWESGLNAMECALHLEKKLNQALLDLHALGSARTDPHLCDFLETHFLDEEVKLIKKMGDHLTNLRKMGAPEAGLGEYLFERLTLKHD
B4: C terminal (designed binder)
chain: B3 chain with D86A, C87E
B5: NC-loop (designed binder)
chain: MSSQIRQNYHQDSEAAVNRQINLYLQASYTYLSLGFYFDRDDVALEGVSHFFRELAEEKREGYERLLKMQNQRGGRIFLQDIKKPDCDEWESGLNAMECALHLEKKLNQALLDLHKLATDKNDPHLCDFLETHFLDEEVKLIKKMGDHLTNLRKMGAPEAGLGEYLFERLTLKHD
B6: NC fusion (designed binder)
chain: B5 chain with D86A, C87E
B7: chimeric human H-ferritin (designed binder)
chain: MTSQVRQNYHQDSEAAINRQINLELYASYVYLSMSYYFDRDDVALEGVSHFFRELAEEKREGYERLLKMQNQRGGRIFLQDIKKPDCDDWESGLNAMECALHLEKNVNQSLLELHKLATDKNDPHLCDFLETHFLDEEVKLIKKMGDHVTNLRKMGAPESGLAEYLFERLTLKHD
notes: FITC-labelled in the cell assays; also called chimeric human H-ferritins

From US20200138960A1 (KUNSHAN XINYUNDA BIOTECH, published 2020) come the findings set out here.

Where a chain is given by its changes, count along the chain named.

T2 sequence (P02786 whole entry): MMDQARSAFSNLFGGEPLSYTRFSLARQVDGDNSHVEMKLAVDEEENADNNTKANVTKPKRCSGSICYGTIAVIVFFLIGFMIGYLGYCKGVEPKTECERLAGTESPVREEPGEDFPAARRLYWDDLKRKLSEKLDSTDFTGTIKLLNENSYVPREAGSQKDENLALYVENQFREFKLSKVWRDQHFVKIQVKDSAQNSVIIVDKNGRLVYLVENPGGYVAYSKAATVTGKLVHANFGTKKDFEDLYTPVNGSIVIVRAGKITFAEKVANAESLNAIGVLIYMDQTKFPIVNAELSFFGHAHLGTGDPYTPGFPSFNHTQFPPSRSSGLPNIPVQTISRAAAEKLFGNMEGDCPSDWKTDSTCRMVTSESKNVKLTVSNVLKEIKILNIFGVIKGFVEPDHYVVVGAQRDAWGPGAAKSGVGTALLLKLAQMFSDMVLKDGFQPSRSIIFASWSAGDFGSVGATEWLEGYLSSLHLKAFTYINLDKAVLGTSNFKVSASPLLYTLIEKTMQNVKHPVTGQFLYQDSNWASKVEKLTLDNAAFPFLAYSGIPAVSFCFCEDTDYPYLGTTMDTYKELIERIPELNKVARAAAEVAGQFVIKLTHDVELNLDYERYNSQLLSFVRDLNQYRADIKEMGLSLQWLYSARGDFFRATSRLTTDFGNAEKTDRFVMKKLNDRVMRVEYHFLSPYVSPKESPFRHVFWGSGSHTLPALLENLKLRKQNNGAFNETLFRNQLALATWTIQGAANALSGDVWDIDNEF

The target in the first assay is T1, TfR1 (human, Sino Biological Inc.) (human, UniProt P02786 89-760).
T1 construct: Bought protein; the catalogue number printed for it (11020-MM02) is the same as that printed for the anti-TfR1 primary antibody, so the construct cannot be told; also called TfFR1; receptor TfR1
T1 sequence (P02786 89-760 limits assumed): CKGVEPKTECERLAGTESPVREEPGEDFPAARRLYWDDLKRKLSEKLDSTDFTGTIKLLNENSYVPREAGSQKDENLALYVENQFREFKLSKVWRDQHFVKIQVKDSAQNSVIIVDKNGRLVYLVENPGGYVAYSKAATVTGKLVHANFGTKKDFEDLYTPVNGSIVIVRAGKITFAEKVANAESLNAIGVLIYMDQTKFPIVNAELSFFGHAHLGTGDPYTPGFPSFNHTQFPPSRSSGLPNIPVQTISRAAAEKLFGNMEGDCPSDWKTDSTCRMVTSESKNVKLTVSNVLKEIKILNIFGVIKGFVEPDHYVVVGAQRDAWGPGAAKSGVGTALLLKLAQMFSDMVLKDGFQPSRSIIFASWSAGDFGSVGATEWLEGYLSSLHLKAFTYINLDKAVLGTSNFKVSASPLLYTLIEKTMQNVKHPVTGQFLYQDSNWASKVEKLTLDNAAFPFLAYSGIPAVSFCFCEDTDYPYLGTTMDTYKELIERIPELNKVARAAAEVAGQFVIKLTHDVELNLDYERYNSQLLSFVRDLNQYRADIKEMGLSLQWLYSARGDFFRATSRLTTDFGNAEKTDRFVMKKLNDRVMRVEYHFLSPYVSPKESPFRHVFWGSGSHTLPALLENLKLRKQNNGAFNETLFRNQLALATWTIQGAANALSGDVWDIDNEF
Put plainly: ELISA value converted by purity of target protein.
For B1, the “Converted ELISA value” was 1.52. Still for that read-out and setting: in the case of B2 it was 1.3; in that of B3, 0.71; in that of B4, 0.17. On the same count and under the same terms, in the case of B5 it was 2.02; in that of B6, 1.14.

A further assay addresses T2, human Transferrin Receptor 1 (TfR1) on cells (human, UniProt P02786 1-760).
T2 construct: whole, on cells; Endogenous receptor on human cell lines; also called receptor TfR1 on hCMEC/D3 cells; TfR1 on U87-MG cells
Put plainly: flow cytometry on hCMEC/D3 cells according to Example 1b.
B7: the binding result is given as “binds”.

The target of another assay is T1, TfR1 (human, Sino Biological Inc.). The experiment in a line: ELISA, protein coated at 20 ug/mL, 2 ug/mL TfR1, anti-TfR1 detection.
As for B1, the ELISA value came to 1.17 OD630.

In turn, B2 displayed an ELISA value of 0.88 OD630. On to B3, for which the ELISA value is 0.31 OD630. In the case of B4, the ELISA value was determined as 0.1 OD630. The same measure, in the same setting: the result for B5 reads 1.23 OD630; that for B6, 1.03 OD630.
